The target of experiment [1] is GDF-11 (Homo sapiens (Human)) (UniProt O95390). Nature of the experiment: KinExA solution equilibrium, ligand-coated beads, Cy5 anti-human Fc detection. Background: A kinetic exclusion assay measures how much of one partner remains free in solution.
The target in experiment [2] is T1, activin A (Homo sapiens (Human), UniProt P08476 311-426).
T1 sequence: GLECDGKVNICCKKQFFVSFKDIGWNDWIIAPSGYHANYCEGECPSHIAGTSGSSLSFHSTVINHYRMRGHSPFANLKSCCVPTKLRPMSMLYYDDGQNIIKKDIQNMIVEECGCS
Nature of the experiment: cell-based or functional assay.

Experiment [3] has as its target T2, myostatin (human, UniProt O14793 267-375).
T2 sequence: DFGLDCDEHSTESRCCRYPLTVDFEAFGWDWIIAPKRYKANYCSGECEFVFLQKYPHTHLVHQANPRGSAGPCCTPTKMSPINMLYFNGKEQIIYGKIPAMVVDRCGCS
Nature of the experiment: cell-based or functional assay.

Experiment [4] addresses GDF-11 (Homo sapiens (Human)) (UniProt O95390). Nature of the experiment: cell-based or functional assay.
For experiment [5], the target named is T1, activin A. Nature of the experiment: KinExA solution equilibrium, ligand-coated beads, Cy5 anti-human Fc detection. How it is done: (§1) Solution-based equilibrium-binding assays using KinExA™ technology (Sapidyne Instruments, Inc.) were used to determine the dissociation equilibrium (KD) of ligand binding to ActRIIB-Fc polypeptides. UltraLink Biosupport beads (Pierce) was pre-coated with about 100 μg/ml each of myostatin, GDF-11, and activin A overnight, and then blocked with BSA. 1 pM and 3 pM of ActRIIB-Fc (E28W) (SEQ ID NO: 21) and svActRIIB-Fc (E28W, S44T) (SEQ ID NO: 10) samples were incubated with various concentrations (0.7 fM to 160 pM) of myostatin, activin A, and GDF-11 respectively in sample buffer at room temperature for 8 hours before being run through the ligand-coated beads. The amount of the bead-bound soluble receptor was quantified by fluorescent (Cy5) labeled goat anti-human-Fc antibody at 1 mg/ml in superblock. The binding signal is proportional to the concentration of free soluble receptor at equilibrium with a given myostatin, activin A, or GDF-11 concentration. KD was obtained from the nonlinear regression of the competition curves using a dual-curve one-site homogeneous binding model provided in the KinEx A™ software (Sapidyne Instruments, Inc.).

Experiment [6] concerns the target T2, myostatin. The description is as above. How it is done: as §1

This is an account of results in patent US20100168020A1 (Amgen, published 2010).

A word on the Kd: it is the constant that tells how readily two partners part at equilibrium. Low values mean higher affinity, high ones lower affinity.

Residue numbers refer to the chain shown, from its start. Numbers in names are those of the source.

B1: ActRIIB-Fc (E28W) (Fc fusion)
chain: ETRWCIYYNANWELERTNQSGLERCEGEQDKRLHCYASWRNSSGTIELVKKGCWLDDFNCYDRQECVATEENPQVYFCCCEGNFCNERFTHLPEAGGPEVTYEPPPTAPTGGGGSVECPPCPAPPVAGPSVFLFPPKPKDTLMISRTPEVTCVVVDVSHEDPEVQFNWYVDGVEVHNAKTKPREEQFNSTFRVVSVLTVVHQDWLNGKEYKCKVSNKGLPAPIEKTISKTKGQPREPQVYTLPPSREEMTKNQVSLTCLVKGFYPSDIAVEWESNGQPENNYKTTPPMLDSDGSFFLYSKLTVDKSRWQQGNVFSCSVMHEALHNHYTQKSLSLSPGK
notes: also called ActRIIB-IgG2Fc (E28W); ActRIIB-IgG Fc (E28W)
Take B1: the Kd in experiment [1] was 0.1 pM; with activin A [5] it was 0.2 pM; in the experiment with myostatin [6], 0.1 pM. Besides, the “IC50, luciferase activity of C2C12/pMARE-luc reporter cells at 4 nM ligand” value with activin A [2] worked out at 3.2 nM; in the experiment with myostatin [3] it was 0.95 nM; in experiment [4], 2.4 nM.

B2: svActRIIB-Fc (E28W, S44T) (Fc fusion)
chain: B1 chain with S20T
notes: Made in 293-6E or CHO cells; also called svActRIIB-IgG2Fc (E28W, S44T); svActRIIB-IgG Fc (E28W, S44T)
Take B2: the Kd (in experiment [1]; with activin A [5]; with myostatin [6]) was 0.1 pM in each case. Further, the “IC50, luciferase activity of C2C12/pMARE-luc reporter cells at 4 nM ligand” value with activin A [2] was found to be 3.6 nM; in the experiment with myostatin [3] it was 1.07 nM; in experiment [4] it was 2.4 nM.
